Substrate in the data set: O=S(O)O
As to the kind of experiment: purified protein. Format: biochemical, Zea mays. The note with it: 400 µM ferricyanide as electron acceptor, sulfite 2.5-400 µM, 20 mM Tris-HCl pH 8.0 (general SO assay).

B1: ZmSO (recombinant maize sulfite oxidase) (Zea mays subsp. mays) (protein)
chain: MPGLTAPSDYAEEPPRHPALKINSKEPFNAEPHRSELVASYITPVDFFYKRNHGPIPKVEDLSRYTVSISGLVNKSIQLSMADIWSLPKYNVTATLQCAGNRRTAMSNVRKVRGVGWDISALGTATWGGAKLSDVLELVGIPKLSSVTSLGGKHVEFVSVDKCKEEKGGPYTASIPLNQATNPDADVLLAYEMNGEVLNRDHGYPLRVVVPGVIGARSVKWLDSINVKEEECQGFFMQKDYKMFPPTVDWDNINWSTRRPQMDFPVQSAICTLEDVDVIKEGQARIAGYALSGGGRGIERVDVSADGGKTWVEARRYQKDNVAYVSDGPQSDKWAWVLFEATLDVPANPEIVVKAVDSAANVQPEKVEDIWNLRGILNTSWHRIKIQRSSCVERSKL
notes: 45 kDa; Mo domain, no heme domain; primers give N-terminus MPGLTA
With B1, the Km (as a rule, the concentration of substrate that gives half-maximal velocity) was determined as 21.4 ± 0.32 µM.

These data come from article PMC3365070, “Overexpression of a Maize Sulfite Oxidase Gene in Tobacco Enhances Tolerance to Sulfite Stress via Sulfite Oxidation and CAT-Mediated H2O2 Scavenging” (PLoS ONE, 2012).
